Stoichiometry N data for 3 substances are collected here from doi:10.1101/2021.05.06.441046.

Assay [1] has as its target 5P_FL2 spike (six-proline FL2 spike with P986 reverted to K986) (SARS-CoV-2) (UniProt P0DTC2). Put plainly: negative-stain electron microscopy.
Assay [2] shares this target. Kind of assay: SEC.
In assay [3] the target is VFLIP_D614G spike (VFLIP variant bearing the D614G mutation) (SARS-CoV-2) (UniProt P0DTC2). Kind of assay: cryo-EM structure.
The target in assay [4] is 6P_DS3 spike (six-proline spike with the inter-protomer disulfide Y707C/T883C) (SARS-CoV-2) (UniProt P0DTC2). Put plainly: negative-stain electron microscopy.
Assay [5] has the same target. Kind of assay: non-reducing SDS-PAGE.
For assay [6] the target is unchanged. Kind of assay: SEC. In general terms: SEC sorts molecules by how far they enter the pores of the column.

“5P_FL2 spike (six-proline FL2 spike with P986 reverted to K986) (from UniProt P0DTC2) (domain or fragment)”: the stoichiometry N in assay [1] and in assay [2] was 3 in each case.
As to “VFLIP_D614G spike (VFLIP variant bearing the D614G mutation) (from UniProt P0DTC2) (domain or fragment)”, the stoichiometry N in assay [3] amounted to 3.
Consider “6P_DS3 spike (six-proline spike with the inter-protomer disulfide Y707C/T883C) (from UniProt P0DTC2 13-1208) (domain or fragment)”, for which the stoichiometry N in assay [4], in assay [5] and in assay [6] was 3 each time.

A word on the stoichiometry N: it is the number of molecules, sites or subunits per partner or assembly.
